This assay concerns the target T1, Rfa3 DNA-binding domain-E (DBD-E), OB domain, residues 1-99 (S. cerevisiae, UniProt P26755 1-99, fluorescent label NT-495 (Monolith NT protein-labeling Kit Blue-Cys) on free cysteine residues).
T1 construct: Rfa3 (RPA14 in humans), S. cerevisiae Replication Protein A smallest subunit, residues 1-99; the C-terminal trimerisation helix is removed; 3C-cleavable GST fusion; also called Rfa3-OB; Rfa3-OB domain; source: E. coli BL21 (DE3), purified (glutathione sepharose 4B, on-column 3C cleavage, SEC)
Nature of the assay: MST; 50 nM NT-495-labeled DBD-E (or mutant) mixed with equal volumes of a dilution series of DBD-A or DBD-A^S178D; 20 mM Tris pH 7.5, 150 mM NaCl, 0.5 mM TCEP, 0.01% Tween-20, 0.1 mg/ml BSA; 25 °C; apparent EC50 from the Hill equation. The following applies: both partners purified.

Two molecules from publication PMC6303327, “A structural and dynamic model for the assembly of Replication Protein A on single-stranded DNA” (Nature Communications, 2018) can be followed below.

For orientation: EC50 means the concentration at which the effect is half-maximal.

Changes are numbered by the printed parent chain. Names and notes keep the numbering of the source.

T1 sequence (P26755 1-99): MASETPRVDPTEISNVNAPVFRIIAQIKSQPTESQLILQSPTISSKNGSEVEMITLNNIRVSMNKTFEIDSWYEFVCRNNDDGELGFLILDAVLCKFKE

B1: Rfa1 DNA-binding domain-A (DBD-A), residues 178-294 (domain or fragment, S. cerevisiae, UniProt P22336 178-294, looked up)
chain: SQKTRPIFAIEQLSPYQNVWTIKARVSYKGEIKTWHNQRGDGKLFNVNFLDTSGEIRATAFNDFATKFNEILQEGKVYYVSKAKLQPAKPQFTNLTHPYELNLDRDTVIEECFDESN
notes: Rfa1 (RPA70 in humans), S. cerevisiae Replication Protein A largest subunit, DBD-A, residues 178-294; amplified from the codon-optimized RPA expression plasmid, cloned into pOPINJ; 3C-cleavable GST fusion; also called Rfa1-DBD-A; source: E. coli BL21 (DE3), purified (glutathione sepharose 4B, on-column 3C cleavage, SEC)
Take B1: the half-maximal effective concentration (EC50) was approximately 100 µM.

B2: Rfa1 DBD-A (residues 178-294) phosphomimetic S178D (domain or fragment, S. cerevisiae, UniProt P22336 178-294, looked up)
chain: B1 chain with S1D
notes: Rfa1, S. cerevisiae, DBD-A, residues 178-294 with S178D (first residue of the fragment); also called DBD-A^S178D; S178D mutant DBD-A; source: E. coli BL21 (DE3), purified (glutathione sepharose 4B, on-column 3C cleavage, SEC)
On to B2, for which the 50% effective concentration (EC50) is approximately 30 µM.
